Experimental data: patent US20100028924A1, “Method Of Diagnosing Pon1-Hdl Associated Lipid Disorders” (Rappaport Family Institute Research in the Medical Sciences, priority 2006, published 2010)

Columns and labels:
apoA-I rHDL [1] = assay: Stimulation of enzymatic activity of rePON1 192 isozymes by rHDL-apoA-I; format: biochemical; details: for Vmax (%) activation factor: relative to delipidated enzyme (100%)
From the text: The activity is presented in relation to the initial activity of the delipidated enzymes (percentage of stimulation). Data were fitted to the Langmuir saturation curve, from which the activation factor (Vmax) and the apparent affinity (Kapp) were derived;
Stimulated activity is presented as the percentage of the initial activity of the delipidated enzymes (corresponds to 100%). Data were fitted to the Langmuir saturation curve, from which the activation factor (Vmax) and the apparent affinity (Kapp) were derived;
Delipidated rePONs at 0.2 μM were incubated with a range of rHDL concentrations (0.1-10 μM) for 3 hrs at 37° C. Enzymatic activity was determined in activity buffer (50 mM Tris pH 8.0, 1 mM CaCl2) with substrates at 1 mM concentrations as described [Gaidukov, L. and D. S. Tawfik, Biochemistry, 2005. 44(35): p. 11843-54]. 5-(thiobutyl)-butyrolactone (TBBL) was applied at 0.25 mM, and product formation was monitored spectrophotometrically at 412 nm using 5,5′-dithio-bis-2-nitrobenzoic acid (DTNB) as described [Khersonsky, O. and D. S. Tawfik, Chembiochem, 2006. 7(1): p. 49-53].
Stimulation of the enzymatic activity was examined by incubating rePON1 isozymes with a range of rHDL concentrations (at the HDL/PON ratio of 0.5-50), and measuring the catalytic activity with various substrates as detailed hereinabove. FIGS. 3A-B illustrate the enzymatic activity of the rePON1 isozymes with δ-nonanoic lactone as substrate (FIG. 3A) and thiobutyl butiryl lactone (TBBL) as substrate (FIG. 3B). FIGS. 4A-D illustrate the enzymatic activity of the rePON1 isozymes with γ-dodecanoic lactone as substrate (FIG. 4A), δ-valerolactone as substrate (FIG. 4B), phenyl acetate as substrate (FIG. 4C) and paraoxon as substrate (FIG. 4D). Data were fitted to the Langmuir saturation curve to give the activation factor Vmax (in percent relative to the delipidated PON1) and the apparent affinity Kapp.

[2] = Inactivation kinetics of rePON1 192 isozymes in activity buffer; format: biochemical; details: EDTA and β-mercaptoethanol, 37° C.
Procedure: (§1) FIG. 1 is a graph showing the inactivation kinetics of the wild-type rePON1-192K (SEQ ID NO:2), -192R (SEQ ID NO:4) and -192Q (SEQ ID NO:6) isozymes, bound to rHDL-apoA-I, or in buffer. Delipidated enzymes were incubated with a 50-fold excess of rHDL-apoA-I, or in activity buffer, and subjected to inactivation in the presence of EDTA (5 mM) and β-mercaptoethanol (10 mM) at 37° C. Residual activity at various time points was determined by initial rates of phenyl acetate hydrolysis (2 mM) and plotted as percent of the activity at time zero. Data were fitted to a single exponential for wild-type rePON1-192K on rHDL-apoA-I, and to double-exponentials for the remaining samples. The inactivation rate constants and amplitudes were derived from this fit;
(§2) Inactivation rates of rePON1s were measured as described [Gaidukov, L. and D. S. Tawfik, Biochemistry, 2005. 44(35): p. 11843-54]. Briefly, rePON1 samples were delipidated using Bio-Beads SM-2 (BioRad) and incubated in buffer, or with 50-fold molar excess of rHDL-apoA-I. EDTA (10 mM) and β-mercaptoethanol (20 mM) were added, and samples were incubated at 37° C. Residual activity at different time points was determined with 2 mM phenyl acetate, and inactivation rates were fitted to either mono- or double-exponentials [Gaidukov, L. and D. S. Tawfik, Biochemistry, 2005. 44(35): p. 11843-54].
(§3) The resultant inactivation profiles of wt rePON1 (SEQ ID NO: 2), rePON1-192Q (SEQ ID NO: 6) and rePON1-192R (SEQ ID NO: 4), were fitted to exponential curves as illustrated in FIG. 1.

apoA-I rHDL [3] = assay: Inactivation kinetics of rePON1 192 isozymes bound to rHDL-apoA-I (EDTA/β-mercaptoethanol, residual phenyl acetate hydrolysis); format: biochemical; details: for A2 (amplitude) (%): as printed in Table 2 beside the SPR constants of the Δ20 variants
Procedure: as §1, §2, §3

apoA-I rHDL [4] = assay: Surface plasmon resonance binding of Δ20-rePON1 192 isozymes to immobilized rHDL-apoA-I; details: for Kd / koff / kon: SPR, 25° C., biotinylated rHDL-apoA-I on streptavidin chip
Procedure: FIGS. 2A-C are sensorgrams for the binding of wt Δ20-rePON1-192K—SEQ ID NO:8 (FIG. 2A), Δ20-rePON1-192R—SEQ ID NO:10 (FIG. 2B) and Δ20-rePON1-192Q—SEQ ID NO:12 (FIG. 2C) isozymes to rHDL-apoA-I. Biotinylated rHDL-apoA-I particles were immobilized onto the streptavidin surface (SA chip), and a series of PON1 concentrations were injected over the immobilized and blank surfaces to obtain the net binding response. Binding was performed at 25° C. Association and dissociation phases were fitted to a single exponential, from which kinetic rate constants were derived. PON1 concentrations in all the sensorgrams are (from bottom to top) 25, 40, 60, 80, 100, 150 and 200 nM;
Surface plasmon resonance (SPR) measurements: rHDL-apoA-I particles containing 0.7% of N-biotinyl-dipalmitoylphosphatidylethanolamine (N-biotynyl-DPPE; Avanti Polar Lipids) were prepared and purified as described [Gaidukov, L. and D. S. Tawfik, Biochemistry, 2005. 44(35): p. 11843-54]. SPR was performed on BIAcore 3000 (Uppsala, Sweden) as described [Gaidukov, L. and D. S. Tawfik, Biochemistry, 2005. 44(35): p. 11843-54]. Briefly, the biotinylated rHDL particles were adsorbed on streptavidin (SA5) chip, and Δ20-rePON1 isozymes were injected over the immobilized and blank surfaces to obtain the net binding response. Binding rate constants were obtained by fitting of association and dissociation phases to single exponentials as described [Gaidukov, L. and D. S. Tawfik, Biochemistry, 2005. 44(35): p. 11843-54].
The above results were further supported by affinity measurements using surface plasmon resonance. It was previously shown that HDL affinity of the intact rePON1 is very high (sub-nanomolar) and could not be determined accurately using surface plasmon resonance [Gaidukov, L., and Tawfik, D. S. (2005)Biochemistry 44, 11843-11854]. In contrast, binding affinity of the truncated variant lacking the first 20 amino acids of the hydrophobic N-terminus (Δ20-rePON1) could be amply determined. Therefore, the truncated variants of PON1 192 isozymes were prepared and their HDL binding affinities measured. Typical binding sensorgrams between Δ20-rePON1 isozymes and the immobilized HDL particles are portrayed in FIGS. 2A-C, and the derived rate and affinity constants are summarized in Table 2 herein below.

[5] = substrate γ-dodecanoic lactone 1 mM
[6] = substrate δ-nonanoic lactone 1 mM
[7] = apoA-I rHDL, 50-fold molar excess, EDTA and β-mercaptoethanol, 37° C.

B1: rePON1-192Q: recombinant PON1 with glutamine at position 192, generated to mimic the human Q isozyme (protein)
chain: MAKLTALTLLGLGLALFDGQKSSFQTRFNVHREVTPVELPNCNLVKGVDNGSEDLEILPNGLAFISSGLKYPGIMSFDPDKSGKILLMDLNEEDPVVLELGITGNTLDISSFNPHGISTFTDEDNTVYLLVVNHPDSSSTVEVFKFQEEEKSLLHLKTIRHKLLPSVNDIVAVGPEHFYATNDHYFADPYLQSWEMHLGLAWSFVTYYSPNDVRVVAEGFDFANGINISPDGKYVYIAELLAHKIHVYEKHANWTLTPLKSLDFDTLVDNISVDPVTGDLWVGCHPNGMRIFYYDPKNPPGSEVLRIQDILSEEPKVTVVYAENGTVLQGSTVAAVYKGKLLIGTVFHKALYCEL
modifications: rePON1-192Q isozyme
notes: recombinant PON1 with glutamine at position 192, generated to mimic the human Q isozyme
- reduction of Vmax compared to wt rePON1-192K (apoA-I rHDL [1]; all the substrates tested): 50-80%
- Kapp (apparent affinity for HDL stimulation) (apoA-I rHDL [1]; substrate TBBL 0.25 mM): 0.5 ± 0.1 µM
- Vmax (%) activation factor (apoA-I rHDL [1]; substrate TBBL 0.25 mM): 340 ± 4%
- Vmax (%) activation factor (apoA-I rHDL [1]; substrate paraoxon 1 mM): 128 ± 1%
- Kapp (apparent affinity for HDL stimulation) (apoA-I rHDL [1]; substrate phenyl acetate 1 mM): 0.8 ± 0.1 µM
- Vmax (%) activation factor (apoA-I rHDL [1]; substrate phenyl acetate 1 mM): 165 ± 1%
- Kapp (apparent affinity for HDL stimulation) (apoA-I rHDL [1]; [5]): 0.6 ± 0.2 µM
- Vmax (%) activation factor (apoA-I rHDL [1]; [5]): 382 ± 20%
- Kapp (apparent affinity for HDL stimulation) (apoA-I rHDL [1]; [6]): 0.6 ± 0.1 µM
- Vmax (%) activation factor (apoA-I rHDL [1]; [6]): 778 ± 12%
- Kapp (apparent affinity for HDL stimulation) (apoA-I rHDL [1]; substrate δ-valerolactone 1 mM): 1.1 ± 0.1 µM
- Vmax (%) activation factor (apoA-I rHDL [1]; substrate δ-valerolactone 1 mM): 481 ± 7%
- k1^inactiv (first, fast phase) [2]: 5.2 h⁻¹
- k2^inactiv (second, slow phase) [2]: 0.3 h⁻¹
- A2 (%) (amplitude of second, slow inactivation phase = HDL-bound fraction) (apoA-I rHDL [3]; [7]): 70%
- k1^inactiv (first, fast phase) (apoA-I rHDL [3]; [7]): 1.1 h⁻¹
- k2^inactiv (second, slow phase) (apoA-I rHDL [3]; [7]): 0.01 h⁻¹

B2: wt Δ20-rePON1-192K: truncated rePON1 variant lacking the first 20 amino acids of the hydrophobic N-terminus, 192K (protein)
chain: MAKSSFQTRFNVHREVTPVELPNCNLVKGVDNGSEDLEILPNGLAFISSGLKYPGIMSFDPDKSGKILLMDLNEEDPVVLELGITGNTLDISSFNPHGISTFTDEDNTVYLLVVNHPDSSSTVEVFKFQEEEKSLLHLKTIRHKLLPSVNDIVAVGPEHFYATNDHYFADPYLKSWEMHLGLAWSFVTYYSPNDVRVVAEGFDFANGINISPDGKYVYIAELLAHKIHVYEKHANWTLTPLKSLDFDTLVDNISVDPVTGDLWVGCHPNGMRIFYYDPKNPPGSEVLRIQDILSEEPKVTVVYAENGTVLQGSTVAAVYKGKLLIGTVFHKALYCEL
modifications: Delta20-rePON1-192K isozyme
notes: truncated rePON1 variant lacking the first 20 amino acids of the hydrophobic N-terminus, 192K
- Kd (apoA-I rHDL [4]): 100 nM
- koff (apoA-I rHDL [4]): (2.0 ± 0.2) × 10^−2 s^−1
- kon (apoA-I rHDL [4]): (2.0 ± 0.3) × 10^5 s^−1 M^−1
- fold higher HDL binding affinity than the Q isozyme (apoA-I rHDL [4]; relative to the Q isozyme): 3 fold
- A2 (amplitude) (%) (apoA-I rHDL [3]): 100%

B3: Δ20-rePON1-192R: truncated rePON1 variant lacking the first 20 N-terminal amino acids, 192R isozyme (protein)
chain: MAKSSFQTRFNVHREVTPVELPNCNLVKGVDNGSEDLEILPNGLAFISSGLKYPGIMSFDPDKSGKILLMDLNEEDPVVLELGITGNTLDISSFNPHGISTFTDEDNTVYLLVVNHPDSSSTVEVFKFQEEEKSLLHLKTIRHKLLPSVNDIVAVGPEHFYATNDHYFADPYLRSWEMHLGLAWSFVTYYSPNDVRVVAEGFDFANGINISPDGKYVYIAELLAHKIHVYEKHANWTLTPLKSLDFDTLVDNISVDPVTGDLWVGCHPNGMRIFYYDPKNPPGSEVLRIQDILSEEPKVTVVYAENGTVLQGSTVAAVYKGKLLIGTVFHKALYCEL
modifications: Delta20-rePON1-192R isozyme
notes: truncated rePON1 variant lacking the first 20 N-terminal amino acids, 192R isozyme
- Kd (apoA-I rHDL [4]): 110 nM
- koff (apoA-I rHDL [4]): (2.9 ± 0.2) × 10^−2 s^−1
- kon (apoA-I rHDL [4]): (2.6 ± 0.3) × 10^5 s^−1 M^−1
- A2 (amplitude) (%) (apoA-I rHDL [3]): 90%

B4: Δ20-rePON1-192Q: truncated rePON1 variant lacking the first 20 N-terminal amino acids, 192Q isozyme (protein)
chain: MAKSSFQTRFNVHREVTPVELPNCNLVKGVDNGSEDLEILPNGLAFISSGLKYPGIMSFDPDKSGKILLMDLNEEDPVVLELGITGNTLDISSFNPHGISTFTDEDNTVYLLVVNHPDSSSTVEVFKFQEEEKSLLHLKTIRHKLLPSVNDIVAVGPEHFYATNDHYFADPYLQSWEMHLGLAWSFVTYYSPNDVRVVAEGFDFANGINISPDGKYVYIAELLAHKIHVYEKHANWTLTPLKSLDFDTLVDNISVDPVTGDLWVGCHPNGMRIFYYDPKNPPGSEVLRIQDILSEEPKVTVVYAENGTVLQGSTVAAVYKGKLLIGTVFHKALYCEL
modifications: Delta20-rePON1-192Q isozyme
notes: truncated rePON1 variant lacking the first 20 N-terminal amino acids, 192Q isozyme
- Kd (apoA-I rHDL [4]): 300 nM
- koff (apoA-I rHDL [4]): (4.2 ± 0.2) × 10^−2 s^−1
- kon (apoA-I rHDL [4]): (1.4 ± 0.5) × 10^5 s^−1 M^−1
- A2 (amplitude) (%) (apoA-I rHDL [3]): 70%
